Laboratory results from publication doi:10.1101/2025.03.21.644603, “Oligomerization enables the selective targeting of intrinsically disordered regions by small molecules” (bioRxiv, 2025).

B1: activation domain of the estrogen receptor alpha (ERɑ) (domain or fragment, UniProt P03372 1-184, looked up)
chain: MTMTLHTKASGMALLHQIQGNELEPLNRPQLKIPLERPLGEVYLDSSKPAVYNYPEGAAYEFNAAAAANAQVYGQTGLPYGPGSEAAAFGSNGLGGFPPLNSVSPSPLMLLHPPPQLSPFLQPHGQQVPYYLENEPSGYTVREAGPPAFYRPNSDNRRQGGRERLASTNDKGSMAMESAKETRY
notes: also called ERɑ AD; ERɑ (1-184 aa); source: E. coli Rosetta (DE3), pDEST17, purified (inclusion bodies in urea, HisTrap, tag cleavage, SEC); not shown: His-tag, N-terminal, cleaved
B2: activation domain of the progesterone receptor (PR) (domain or fragment, UniProt P06401 1-566, looked up)
chain: MTELKAKGPRAPHVAGGPPSPEVGSPLLCRPAAGPFPGSQTSDTLPEVSAIPISLDGLLFPRPCQGQDPSDEKTQDQQSLSDVEGAYSRAEATRGAGGSSSSPPEKDSGLLDSVLDTLLAPSGPGQSQPSPPACEVTSSWCLFGPELPEDPPAAPATQRVLSPLMSRSGCKVGDSSGTAAAHKVLPRGLSPARQLLLPASESPHWSGAPVKPSPQAAAVEVEEEDGSESEESAGPLLKGKPRALGGAAAGGGAAAVPPGAAAGGVALVPKEDSRFSAPRVALVEQDAPMAPGRSPLATTVMDFIHVPILPLNHALLAARTRQLLEDESYDGGAGAASAFAPPRSSPCASSTPVAVGDFPDCAYPPDAEPKDDAYPLYSDFQPPALKIKEEEEGAEASARSPRSYLVAGANPAAFPDFPLGPPPPLPPRATPSRPGEAAVTAAPASASVSSASSSGSTLECILYKAEGAPPQQGPFAPPPCKAPGASGCLLPRDGLPSTSASAAAAGAAPALYPALGLNGLPQLGYQAAVLKEGLPQVYPPYLNYLRPDSEASQSPQYSFESLPQKI
notes: also called PR AD; PR (1-566 aa); source: E. coli Rosetta (DE3), pDEST17, purified (inclusion bodies in urea, HisTrap, tag cleavage, SEC); not shown: His-tag, N-terminal, cleaved
B3: activation domain of the mineralocorticoid receptor (MR) (domain or fragment, UniProt P08235 1-602, looked up)
chain: METKGYHSLPEGLDMERRWGQVSQAVERSSLGPTERTDENNYMEIVNVSCVSGAIPNNSTQGSSKEKQELLPCLQQDNNRPGILTSDIKTELESKELSATVAESMGLYMDSVRDADYSYEQQNQQGSMSPAKIYQNVEQLVKFYKGNGHRPSTLSCVNTPLRSFMSDSGSSVNGGVMRAVVKSPIMCHEKSPSVCSPLNMTSSVCSPAGINSVSSTTASFGSFPVHSPITQGTPLTCSPNVENRGSRSHSPAHASNVGSPLSSPLSSMKSSISSPPSHCSVKSPVSSPNNVTLRSSVSSPANINNSRCSVSSPSNTNNRSTLSSPAASTVGSICSPVNNAFSYTASGTSAGSSTLRDVVPSPDTQEKGAQEVPFPKTEEVESAISNGVTGQLNIVQYIKPEPDGAFSSSCLGGNSKINSDSSFSVPIKQESTKHSCSGTSFKGNPTVNPFPFMDGSYFSFMDDKDYYSLSGILGPPVPGFDGNCEGSGFPVGIKQEPDDGSYYPEASIPSSAIVGVNSGGQSFHYRIGAQGTISLSRSARDQSFQHLSSFPPVNTLVESWKSHGDLSSRRSDGYPVLEYIPENVSSSTLRSVSTGSSRPSKI
notes: also called MR AD; MR (1-602 aa); source: E. coli Rosetta (DE3), pDEST17, purified (inclusion bodies in urea, HisTrap, tag cleavage, SEC); not shown: His-tag, N-terminal, cleaved
B4: activation domain of the glucocorticoid receptor (GR) (domain or fragment, UniProt P04150 1-420, looked up)
chain: MDSKESLTPGREENPSSVLAQERGDVMDFYKTLRGGATVKVSASSPSLAVASQSDSKQRRLLVDFPKGSVSNAQQPDLSKAVSLSMGLYMGETETKVMGNDLGFPQQGQISLSSGETDLKLLEESIANLNRSTSVPENPKSSASTAVSAAPTEKEFPKTHSDVSSEQQHLKGQTGTNGGNVKLYTTDQSTFDILQDLEFSSGSPGKETNESPWRSDLLIDENCLLSPLAGEDDSFLLEGNSNEDCKPLILPDTKPKIKDNGDLVLSSPSNVTLPQVKTEKEDFIELCTPGVIKQEKLGTVYCQASFPGANIIGNKMSAISVHGVSTSGGQMYHYDMNTASLSQQQDQKPIFNVIPPIPVGSENWNRCQGSGDDNLTSLGTLNFPGRTVFSNGYSSPSMRPDVSSPPSSSSTATTGPPPKL
notes: also called GR AD; GR (1-420 aa); source: E. coli Rosetta (DE3), pDEST17, purified (inclusion bodies in urea, HisTrap, tag cleavage, SEC); not shown: His-tag, N-terminal, cleaved

Molecular target: the molecule itself
Experiment: dynamic light scattering; one purified protein in solution; NR ADs at 2 mg/mL (AR AD also 35 µM), Tau-5* at 200 to 500 µM; 5 °C; 20 mM sodium phosphate pH 7.4, 1 mM TCEP, 0.5% DMSO-d6; percent of monomer against higher-order species; also with increasing EPI-001

Binding result, binds:
B1, B2, B3, B4
